Experimental data as given in patent US20170306033A1 (Amgen, published 2017).

T1: human PAC1 receptor (human, UniProt P41586 21-468)
T1 sequence: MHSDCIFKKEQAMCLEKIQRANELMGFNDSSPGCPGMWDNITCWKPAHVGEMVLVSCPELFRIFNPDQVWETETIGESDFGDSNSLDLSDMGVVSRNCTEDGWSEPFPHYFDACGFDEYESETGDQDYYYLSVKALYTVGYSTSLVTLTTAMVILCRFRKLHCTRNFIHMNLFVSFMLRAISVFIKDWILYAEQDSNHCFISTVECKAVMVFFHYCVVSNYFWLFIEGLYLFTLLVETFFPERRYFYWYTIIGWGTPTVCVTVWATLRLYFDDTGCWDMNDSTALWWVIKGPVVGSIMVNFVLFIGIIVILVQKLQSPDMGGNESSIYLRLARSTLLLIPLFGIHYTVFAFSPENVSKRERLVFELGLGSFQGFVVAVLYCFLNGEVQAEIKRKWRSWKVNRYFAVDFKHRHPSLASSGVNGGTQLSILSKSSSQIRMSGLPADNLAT


How the values were obtained:
human CGRP receptor = human CGRP receptor (human, UniProt Q16602 23-461; O60894 27-148); experiment: cell-based or functional assay
human CGRP receptor, sequence (Q16602 23-461 limits assumed, chain 1 of 2): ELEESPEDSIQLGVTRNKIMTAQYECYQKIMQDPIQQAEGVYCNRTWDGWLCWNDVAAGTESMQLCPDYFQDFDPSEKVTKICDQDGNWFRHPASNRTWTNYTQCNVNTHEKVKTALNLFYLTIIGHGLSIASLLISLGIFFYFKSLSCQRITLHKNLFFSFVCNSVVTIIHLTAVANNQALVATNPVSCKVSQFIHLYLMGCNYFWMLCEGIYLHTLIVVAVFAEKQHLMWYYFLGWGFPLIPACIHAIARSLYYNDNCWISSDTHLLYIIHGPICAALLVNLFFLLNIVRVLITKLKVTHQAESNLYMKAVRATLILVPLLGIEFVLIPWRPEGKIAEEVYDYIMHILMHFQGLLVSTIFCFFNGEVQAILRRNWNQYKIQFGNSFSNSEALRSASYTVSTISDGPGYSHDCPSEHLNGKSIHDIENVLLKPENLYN
human CGRP receptor, sequence (O60894 27-148 limits assumed, chain 2 of 2): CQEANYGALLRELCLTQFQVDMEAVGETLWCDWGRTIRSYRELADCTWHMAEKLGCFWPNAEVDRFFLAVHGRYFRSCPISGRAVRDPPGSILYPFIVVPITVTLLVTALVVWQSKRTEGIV

human PAC1 receptor = biological target: T1, human PAC1 receptor; experiment: cell-based or functional assay

Row | Binder | % inhibition of human CGRPR (human CGRP receptor) [%] | % inhibition of human PAC1 (human PAC1 receptor) [%]
1 | iPS:327890 (bispecific antibody, human IgG1, kappa, lambda, N297G) light 1: not shown heavy 1: not shown light 2: QSVLTQPPSVSAAPGQKVTISCSGSSSNIGNNYVSWYQQLPGTAPKLLIYDNNKRPSGIPDRFSGSKSGTSATLAITGLQTGDEADYYCGTWDSRLSAVVFGKGTKLTVLGQPKANPTVTLFPPSSEELQANKATLVCLISDFYPGAVTVAWKADGSPVKAGVETTKPSKQSNNKYAAKSYLSLTPEQWKSHRSYSCQVTHEGSTVEKTVAPTECS heavy 2: QVQLVESGGGVVQPGRSLRLSCAASGFTFSSFGMHWVRQAPGKELEWVAVISFDGSIKYSVDSVKGRFTISRDNSKNTLFLQMNSLRAEDTAVYYCARDRLNYYDSSGYYHYKYYGMAVWGQGTTVTVSSASTKGPSVFPLAPSSKSTSGGTAALGCLVKDYFPEPVTVSWNSGALTSGVHTFPAVLQSSGLYSLESVVTVPSSSLGTQTYICNVNHKPSNTKVDKKVEPKSCDKTHTCPPCPAPELLGGPSVFLFPPKPKDTLMISRTPEVTCVVVDVSHEDPEVKFNWYVDGVEVHNAKTKPCEEQYGSTYRCVSVLTVLHQDWLNGKEYKCKVSNKALPAPIEKTISKAKGQPREPQVYTLPPSRKEMTKNQVSLTCLVKGFYPSDIAVEWESNGQPENNYKTTPPVLKSDGSFFLYSKLTVDKSRWQQGNVFSCSVMHEALHNHYTQKSLSLSPGK | 94 | 15
2 | iPS:328034 (bispecific antibody, human IgG1, kappa, N297G) light 1: not shown heavy 1: not shown light 2: EIVLTQSPGTLSLSPGERATLSCRASQSVSSGYLTWYQQKPGQAPRLLIYGASSRATGIPDRFSGSGSGTDFTLTISRLEPEDFAVYYCQQYGNSLSRFGKGTKLEIKRTVAAPSVFIFPPSDEQLKSGTASVVCLLNNFYPREAKVQWKVDNALQSGNSQESVTEQDSKDSTYSLKSTLTLSKADYEKHKVYACEVTHQGLSSPVTKSFNRGEC heavy 2: not shown | 86 | 9
3 | iPS:328036 (bispecific antibody, human IgG1, kappa, N297G) light 1: not shown heavy 1: not shown light 2: EIVLTQSPGTLSLSPGERATLSCRASQSVSSGYLTWYQQKPGQAPRLLIYGASSRATGIPDRFSGSGSGTDFTLTISRLEPEDFAVYYCQQYGNSLSRFGQGTKLEIKRTVAAPSVFIFPPSDEQLKSGTASVVCLLNNFYPREAKVQWKVDNALQSGNSQESVTEQDSKDSTYSLKSTLTLSKADYEKHKVYACEVTHQGLSSPVTKSFNRGEC heavy 2: not shown | 79 | 21
4 | iPS:326669 (bispecific antibody, human IgG2, kappa) light 1: EIVLTQSPATLSLSPGERATLSCRASQSVGRSLHWYQQKPGQAPRLLIKYASQSLSGIPARFSGSGSGTDFTLTISSLEPEDFAVYYCHQSSRLPFTFGPGTKVDIKRTVAAPSVFIFPPSDEQLKSGTASVVCLLNNFYPREAKVQWKVDNALQSGNSQESVTEQDSKDSTYSLESTLTLSKADYEKHKVYACEVTHQGLSSPVTKSFNRGEC heavy 1: QVQLVESGGGVVQPGRSLRLSCAASGFTFSRFAMHWVRQAPGKGLEWVAVISYDGGNKYYAESVKGRFTISRDNSKNTLYLQMNSLRAEDTALFYCARGYDVLTGYPDYWGQGTLVTVSSASTKGPSVFPLAPCSRSTSESTAALGCLVKDYFPEPVTVSWNSGALTSGVHTFPAVLQSSGLYSLKSVVTVPSSNFGTQTYTCNVDHKPSNTKVDKTVERKCCVECPPCPAPPVAGPSVFLFPPKPKDTLMISRTPEVTCVVVDVSHEDPEVQFNWYVDGVEVHNAKTKPREEQFNSTFRVVSVLTVVHQDWLNGKEYKCKVSNKGLPAPIEKTISKTKGQPREPQVYTLPPSREEMTKNQVSLTCLVDGFYPSDIAVEWESNGQPENNYDTTPPMLDSDGSFFLYSDLTVDKSRWQQGNVFSCSVMHEALHNHYTQKSLSLSPGK light 2: EIVLTQSPGTLSLSPGERATLSCRASQSVSSGYLTWYQQKPGQAPRLLIYGASSRATGIPDRFSGSGSGTDFTLTISRLEPEDFAVYYCQQYGNSLSRFGQGTKLEIKRTVAAPSVFIFPPSDEQLKSGTASVVCLLNNFYPREAKVQWKVDNALQSGNSQESVTEQDSKDSTYSLKSTLTLSKADYEKHKVYACEVTHQGLSSPVTKSFNRGEC heavy 2: QVQLVESGGGVVQPGRSLRLSCAASGFTFSSYGMHWVRQAPGKGLEWVAVIWYDGSNKYYADSVKGRFIISRDKSKNTLYLQMNSLRAEDTAVYYCARAGGIAAAGLYYYYGMDVWGQGTTVTVSSASTKGPSVFPLAPCSRSTSESTAALGCLVKDYFPEPVTVSWNSGALTSGVHTFPAVLQSSGLYSLESVVTVPSSNFGTQTYTCNVDHKPSNTKVDKTVERKCCVECPPCPAPPVAGPSVFLFPPKPKDTLMISRTPEVTCVVVDVSHEDPEVQFNWYVDGVEVHNAKTKPREEQFNSTFRVVSVLTVVHQDWLNGKEYKCKVSNKGLPAPIEKTISKTKGQPREPQVYTLPPSRKKMTKNQVSLTCLVKGFYPSDIAVEWESNGQPENNYKTTPPMLKSDGSFFLYSKLTVDKSRWQQGNVFSCSVMHEALHNHYTQKSLSLSPGK | 74 | 85
5 | iPS:328035 (bispecific antibody, human IgG1, kappa, N297G) light 1: DIQMTQSPSSLSASVGDRITITCRASQSISRYLNWYQQKPGKAPKLLIYAASSLQSGIPSRFSGSGSGTDFTLTINSLQPEDFATYFCQQSYSPPFTFGQGTKVDIKRTVAAPSVFIFPPSDEQLKSGTASVVCLLNNFYPREAKVQWKVDNALQSGNSQESVTEQDSKDSTYSLESTLTLSKADYEKHKVYACEVTHQGLSSPVTKSFNRGEC heavy 1: not shown light 2: EIVLTQSPGTLSLSPGERATLSCRASQSVSSGYLTWYQQKPGQAPRLLIYGASSRATGIPDRFSGSGSGTDFTLTISRLEPEDFAVYYCQQYGNSLSRFGQGTKLEIKRTVAAPSVFIFPPSDEQLKSGTASVVCLLNNFYPREAKVQWKVDNALQSGNSQESVTEQDSKDSTYSLKSTLTLSKADYEKHKVYACEVTHQGLSSPVTKSFNRGEC heavy 2: not shown | 73 | 10
6 | iPS:326651 (bispecific antibody, human IgG2, kappa, lambda) light 1: not shown heavy 1: QVQLQESGPGLVKPSQTLSLTCTVSGGSISSGGYYWSWIRQHPGKGLEWIGYIYYSGNTYYNPSLKSRVTISGDTSKNQFSLKLRSVTAADTAVYYCTRGGAARGMDVWGQGTTVTVSSASTKGPSVFPLAPCSRSTSESTAALGCLVKDYFPEPVTVSWNSGALTSGVHTFPAVLQSSGLYSLKSVVTVPSSNFGTQTYTCNVDHKPSNTKVDKTVERKCCVECPPCPAPPVAGPSVFLFPPKPKDTLMISRTPEVTCVVVDVSHEDPEVQFNWYVDGVEVHNAKTKPREEQFNSTFRVVSVLTVVHQDWLNGKEYKCKVSNKGLPAPIEKTISKTKGQPREPQVYTLPPSREEMTKNQVSLTCLVDGFYPSDIAVEWESNGQPENNYDTTPPMLDSDGSFFLYSDLTVDKSRWQQGNVFSCSVMHEALHNHYTQKSLSLSPGK light 2: not shown heavy 2: not shown | 66 | 23
7 | iPS:328042 (bispecific antibody, human IgG1, kappa, lambda, N297G) light 1: DIQMTQSPSSLSASVGDRITITCRASQSISRYLNWYQQKPGKAPKLLIYAASSLQSGIPSRFSGSGSGTDFTLTINSLQPEDFATYFCQQSYSPPFTFGQGTKVDIKRTVAAPSVFIFPPSDEQLKSGTASVVCLLNNFYPREAKVQWKVDNALQSGNSQESVTEQDSKDSTYSLESTLTLSKADYEKHKVYACEVTHQGLSSPVTKSFNRGEC heavy 1: not shown light 2: not shown heavy 2: not shown | 85 | 20
8 | iPS:328037 (bispecific antibody, human IgG1, kappa, lambda, N297G) light 1: DIQMTQSPSSLSASVGDRITITCRASQSISRYLNWYQQKPGKAPKLLIYAASSLQSGIPSRFSGSGSGTDFTLTINSLQPEDFATYFCQQSYSPPFTFGQGTKVDIKRTVAAPSVFIFPPSDEQLKSGTASVVCLLNNFYPREAKVQWKVDNALQSGNSQESVTEQDSKDSTYSLESTLTLSKADYEKHKVYACEVTHQGLSSPVTKSFNRGEC heavy 1: not shown light 2: not shown heavy 2: not shown | 71 | 25
